assay: soluble on expression in E. coli; label from the status in PepcDB or PDB records

Question: Which “soluble on expression in E. coli” value does the source give for “MHMQLKGKTALVTGSTAGIGKAIATSLVAEGANVLINGRREENVNETIKEIRAQYPDAILQPVVADLGTEQGCQDVIEKYPKVDILINNLGIFEPVEYFDIPDEDWFKLFEVNIMSGVRLTRSYLKKMIERKEGRVIFIASEAAIMPSQEMAHYSATKTMQLSLSRSLAELTTGTNVTVNTIMPGSTLTEGVETMLNSLYPNEQLTIEEAEKRFMKENRPTSIIQRLIRPEEIAHLVTFLSSPLSSAINGSALRIDGGLVRSVF” here?
Answer: The value was “not soluble”.

Question: Which “soluble on expression in E. coli” value does the source give for “MSLQQAVGMYVEAPTPDEAARLINSGRKLGIVIAVGVCEVFYTGRAAASLGPTRRLVILKRDGTLLVHEAEKAQPKIWNPPGSSTAAYVEGGKLVVKSIRSRPFETVRVIFDKVDFIAAFDVGATELTLVGSERDVVGALVKNPSIIEEGLEVVGVEVPTDVGHLDILARDKNGRYVIIEVKRDLATHEAVFQLARYVELYRRKGYDVRGILVAGDITASAYDYLKRYGLNFVKINPRELMVLTNKNPLNAKEGHHHHHH” here?
Answer: Its value is “soluble”.

Question: Which “soluble on expression in E. coli” value does the source give for “MGSDKIHHHHHHMKENIEKLFQAIAQKNPIHSKYLKKIEFSQEDEEEFDKLISYYIQDGISIKEQCDCYLLILNDTLEETKFFIENGAYRYSSFDEVKDKVYFNESYMKQYMIGLALSSFVWIAHIKVRKYFSQYLQNFTPKTTYFEIGPGHGEYFARAVKSGKFSAFYGLDISPTSCELTQKMVKQQVGGLITKCDFLCQDFFTYDFDKKADLIVIGEVLEHVEKPLEFLKRSKELLSDGGEIFATIPINAPAIDHIYLFSHPDEVKDLIEKSGLKFKAYECFMANDYSLEKALKFKNAITMAVVLNA” here?
Answer: The value was “not soluble”.

Question: Which “soluble on expression in E. coli” value does the source give for “LDPPSGELSLPEDIPGEAKVYFDDEGVPYIHASSDEAAFYAAGWVHASLRLFQMDVFRRVGLGELSGLVGEAGLEADRRAAILGLRSVVDAEWRHIQNNPEFGEIVRIVEAYTAGVNGYISYALKTGRLPVEYRVLGVKPSPWLPQDTLAMAKVLALMLSYSEDDLILDRLVRKWGPEVIADFDIVGRSLNMPHASCDMAVDWGDVTGLEGPYNPLLSVEERREPLHESEPLDLGYNPDPEIIAAVVDRVLYMLSWNAASNNWVVSGSLTVSGNPLLANDPHLSLTAPGIWLPIVISSPSYSLAGVTIPGVPLVVIGRNSHVAWGFTNVGSDFTDFYRYQWVDENRYFYKGRIFGVEKSSIEAYVWDPLARSYRVQEISVARTIHGPVIEWQGEKFAVSYTSARPTFEMIFLWLLNKASSVRDALSAQRYFYGPPQNMVVADSAGNIAYSPVGAYPERATLPTIETGYGPIVNTGFLPFDGSAGEGEWRGFKPYSSLPVLFNPPQGFVATANSKPFEDGCWDGLGWDYADRFRTERIYTLLQERSAEEPLDAGDMRDIQLDVEDLGLKTLVSLMVRVASGDGGHVLERYMDMLAEWAENPQM” here?
Answer: The value was “not soluble”.

Question: With “FLSDGKEIIAEKDEAIRETVKLLEEGHILAIKGIGGTHLACKVGEDDVVLELRKRLGRPTQPFAVMSKIEYTELFAEFDEDEKNALLSLRRPIVVLKKSQDYDKYFSKYVSNLDTIGVMFPYSGLHYLLFDKEIAYVMTSANLPGLPMVKDNDEILKKLNGIADYFLLHNRRIVNRCDDSVVKKVADRLVFLRRSRGFAPEPVKV” as the sequence, how does the “soluble on expression in E. coli” value read?
Answer: The value was “not soluble”.

Question: With “MKNTELEQLINDKLNSAAISDYAPNGLQVEGKETVQKIVTGVTASQALLDEAVRLQADAVIVHHGYFWKGESPVIRGMKRRRLKTLLANDINLYGWHLPLDAHPELGNNAQLAALLGITVKGEIEPLVPWGELSMPVPGLELASWIEARLGRKPLWCGDTGPENVQRVAWCTGGGQSFIDSAARFGVDAFITGEVSEQTIHSAREQGLHFYAAGHHATERGGIRALSEWLNENTALDVTFIDIPNPALEHHHHHH” as the sequence, how does the “soluble on expression in E. coli” value read?
Answer: The value was “soluble”.

Question: With “MFLLKQIGVIRSPFKSPSECPFQGRFSQERFTIELFPEYEEGLKDIETCTHLIVLYWLDRANRDRLIAIPPFDKREHGVFATRSPHRPNPIGFSVVKLLEVRGRELVVEGLDAVDGTPVVDIKPYSSKIDCVENARIGWFEEV” as the sequence, how does the “soluble on expression in E. coli” value read?
Answer: Its value is “soluble”.

Question: Which “soluble on expression in E. coli” value does the source give for “MIPSRSARIIAKLQRLHSTTSAASVSSIDVKEVEKFGDLSAEWADELGPFHALHSLNRIRVPWIVDNVRKSDQKAPPRLVDVGSGGGLLSIPLARSGFDVTGIDATKQAVEAANQSLTAKPLQIAGISKRLRFEHTSVEDFCQKPHNKSAYDAVVASEIVEHVADLPGFIGCLAELARPGAPLFITTINRTWLSKLAAIWLAENVLKIVPPGVHDWEKFITPAELTSHLEKAGCRVTAVHGLMFHPVGNHWTWIESTQCNYGILAVKN” here?
Answer: The value was “not soluble”.

Question: Which “soluble on expression in E. coli” value does the source give for “QNTLAENQFNQRRTIETTLMGSIISAFRARGDAGAREILTEWKDSPVSSGVYVIQGDEKKDILNRYIDSYTIERARLFAAGHPHSNLVHIEYDRFGEEYLFFTKDWDKLQARRLPSPLLIPGLPLAPIWHE” here?
Answer: The value was “not soluble”.

Question: For “AHHHHHHGSVERKKWSENFSEWFNEVIEEAGILDKRYPVKGMNVWLPYGLKIMKNIEKFIHEEMERTDHQEVLFPALIPETEFQKEAEHIAGFEGEVFWVTHAGHEPLDVRLVLRPTSETAMYSMFALWIRSHADLPFKVYQIVNVYRYETKHTRPLIRVREISRFFEAHTAHADFEDAERQIKEDLEIFDNLMKKLAIAYVISKRPEWDKFPGAYYSLGAEVVMPDGRTLQIGTMHNYKQNFAKAYNILYEKEDGTHDYVHQTTFGMSERLLAAVIAIHGDDRGMVLPPTIAPIQVVIVPIPKKGSEEEVYSYAREIEEELKLAGIRVHLDLRDKRPGWKFYDWELKGVPVRIEVGPRDAAEKTVVLARRDKLEKITVSREELVDKVRELFDDIMQYLYERAKEWLESHIKRVDTIEEAKELFNDRRGIVEIPWCGEEECGLKMEEELEAKMLGIPYPEESARVEGKKCPVCGREAKFIARFARTY”, which “soluble on expression in E. coli” value is on record?
Answer: The value was “not soluble”.

Question: For “MAVCSLVAKITYAEERQQNNYPIILVNGFAGWGREEMLGVKYWGGVHDIQEDLKRNGYTVHTAAVGPVSSNWDRACELYAQINGGTVDYGAAHAEKHGHKRFGRTYSGFAPNWSETNKIHLVGHSMGGQTIRTLVQLLKEGSYEEKNYVKNHPNTKISPLFEGEKSYVHSVTTLATPHNGTTLADGSLLLPFVKDLLITAASFGGNDNLSLYDFKLDQWGLKKNTGESFFQYSNRILNSSIWKNTKDISQWDLSTDGAKELNNWVKTQLNVYYLSYSGHASQAAPITGLHLPHITMNKVLMGNAFFLGSYARYEENRPLIDTTWWQNDGVVNTSSMIAPSSNATVNNNESLQIGKWNHIETKANWDHLDMVGLSVSDTLGFSSIQEFYRAIAEKLSRLPK”, which “soluble on expression in E. coli” value is on record?
Answer: The value was “not soluble”.

Question: With “MSLEVRWNEYLSRNGSLFSSDELSGASPPSVFVGSYGYPRVGVGPMVPPVHGDTSLMDAPERWAGRPLDEIVNYRLSLVRGIRKTRVTGTSGRYIEGLQEAAMSRRPVDSDIRFEKPVSPAALADGCCAPFGPVGEIRRASFGGSSADGAIERAYYDRDLGAADAAVALYDGGTEISRIQGCLSVGMLGRRRKLVPTRWSITAVDDMVSKRLVGRIKDAPVSDAHQVFHYVHMGNLFSVVLFPHRWLFEMMEAYYSGGVLGFGADHEDARGLDHAPATAGAHFASRLAVAEHLCGRGVQAGALVLREIRAEYSVPVGVWQVREGLRAAMAQKPFVAGSLDEAIDEACRPMSISRNEWLSHGSIMRLVRQRTLSEFFEGHHHHHH” as the sequence, how does the “soluble on expression in E. coli” value read?
Answer: The value was “not soluble”.

Question: For “MSKDEGKRKKESVVDLTRFLDKEIRVKFQGGREASGVLRGFDQLLNMVLDDCREYLRDPQNPSVVGDETRQLGLIVARGTAITVVSPADGLEQIANPFATQEEE”, which “soluble on expression in E. coli” value is on record?
Answer: Its value is “not soluble”.

Question: For “SLRSIMTPRGEISWVDAEQSEDEIRRQLLSSPHSLFPVCRGELDEIIGIVRAKEMLVALESGENVAALASASPAIVVPETLDPINLLGVLRRARGSFVIVTNEFGVVQGLVTPLDVLEAIAGEFPDADETPEIVIDGDGWLIKGSTDLHALQQALGLDPLINDDEDIATVAGLVISANGHIPRIGDVVSLPPLHFTVVEANDYRV”, which “soluble on expression in E. coli” value is on record?
Answer: Its value is “soluble”.

Question: With “MEASLYSRVGDKVVCQLCWRFCKLGDGEEGHCRVRRNEGGKIFTTTYGKLSHLESRPIEIKPFFHFLPGSTSMTFSTYSCNFDCPWCQNWSISKATPPEALRETSPEEVVDLALIMGDKSTCASLNEPTLLYEYLLDVFRLAREKGLKNTMVSNGYMSILALKNLKNAGLDAINIDVKGDERVYRDYCNAEVEYVWRVIEKATKLGIHVEVVCLLVSNVVDEEVVREIVREHLRRAGSSIPIHFTRYFPAYRFTAPPTRIEFLEWAVKHAYKEGAEFAYIGNVPGHRFENTHCPDCGELLIRRYSFSTVDNRIRSGCCPKCGREIYGVWV” as the sequence, how does the “soluble on expression in E. coli” value read?
Answer: Its value is “not soluble”.

Question: Which “soluble on expression in E. coli” value does the source give for “MSLTRFSVSPGDPMKKFVTLALTLSTLGASVASAQAVRVGMAYDAGGKADKSFNQSAYEGSQLAAKKLGIQVKDFEPSDPSQIIQGVRSFAKEGFDLTIGVGFSNNASITQVAKENPDLYFGLVDDVSTAKNVASLVFNEEQGSYLVGYLAAMNSSTGVVGFIGGMNIPLIHKFEAGYRAGVKAANPKATIISQYVGNTPEAWNNPGKAKEIAANMRGRGADIIFAAAGGSGNGLIDYIKQTPCLNASQLPKGVTFKSDNFKNVKKSAAYAKACTGNTRPMFFIGVDSNQNYLGDFDKNPATLNHGLTSMVKRVDNAVYALINEVKNDKFKAGERRFGLKDGGVAYAVDQYNKALLPAAQIAKVEAVKQQIIKGQIKVPTKEGGSHHHHHH” here?
Answer: The value was “soluble”.

Question: With “MGSDKIHHHHHHMNWKVTIKNTIEELAKLKKDVKIENEGDPEHELSDAEDKVMKIELEEEFKPTMYSLYEFKSLNDKRIASIDSSSRYLRDFSVNTCLIGLSVYSNREGFIDGPFTVDIPYIGISSYREILESLKIDDINVRYKNVVNYYYVNEPNNEYKIDDIADELRLEAENVGLKRVIQNHDIVIIDGPIYPTPLELTEEINLETEARRKHRLAYAKLVNERIELLNNNVIGVVKRLENSKKLWRVKEINETIGNVKRMKDVTIIELIDERLCRKNYEYVCTIGPFKIEYALEVKDEDGRNVIEKVPTKYAYYVIIRKKYFPPTFLRIESTNKNLDISPVLSRLTERLMPTYIEIVDRRSKRISASLFLYAYEIASNYLNIIHDDKMGYLSVISQFTSE” as the sequence, how does the “soluble on expression in E. coli” value read?
Answer: Its value is “not soluble”.

Question: For “MLSARTMKEVVYWSPKKVADWLLENAMPEYCEPLEHFTGQDLINLTQEDFKKPPLYRVSSDNGQRLLDMIETLKMEHHMEAHKN”, which “soluble on expression in E. coli” value is on record?
Answer: Its value is “soluble”.

Question: For “GPGSMKERRSVSQSRTSRTGQLRNGGFRESRFRVALMSRCARPSSSGTSHMFAPSSLPSVGQPSYESGVSSMPNISFPTCNDGALSPGDSMYPPSLPQRAKNKRTGQKDKQKRQSTLGSVDSEEEKRSFLASAAAFRRHRRYNNPFTAYCLASDPYDRPREIERQRQFMSCYKRIACRFVAGGKNALDKPTRYMLGDCVARLYKAVAADWPEADPMVVSSAEDLIVVFMNLDAVRNPVTALRYMNALLKRCDVVRAFDLKKVPEGWDVVTEDGHLMYTFRPPWVGERRFLPDQVAVKKSRGR”, which “soluble on expression in E. coli” value is on record?
Answer: Its value is “not soluble”.

Question: Which “soluble on expression in E. coli” value does the source give for “MGSDKIHHHHHHMHEAVARMLAKYEPKSVDDSVRALREIIQEVALLGLWRSKFFEHAAFYGGTALRILYGLDRFSENLDFSLLEPSPDFNLARYTASLEEELSAFGFNVRVEMVGKAVESAVQSAFLKANTRNELLVIETGGELAGQVAAGQVLKVKIEVDTDPPTGFTTSTRYLLQPIPFAVRSYSLPDLFAGKMHALLFRRWKNRVKGRDWYDFVWYAANHPQLNLAHLEQRMRQTGHWSGDLPLSAAAFRELLSDSIDRLDVDQARNDVAPFVKDQQALALWSHDFFRDVARRVQTDEG” here?
Answer: Its value is “not soluble”.

Question: Which “soluble on expression in E. coli” value does the source give for “MGHERDWSLVQVALTDITARKKAEAYLEYLGKHDVLTKLHNRAFYSDELNRLERSALRPVSAIVIDLNGLKEANDKLGHDAGDALLRRVGEVLNGVVTAPNHAARIGGDEFAILLPGADKQVAAAMVDTVYELLKINNQFYSSAPLSLSLGVATTEAGETMESLVRRADMNMYEQKNAYYAALRNRSADNNDTTKGLEHHHHHH” here?
Answer: The value was “not soluble”.

From the DeepSol protein solubility set
